Results taken from patent US20250277767A1 (RAMOT AT TEL AVIV UNIVERSITY, published 2025).

Key:
[1] = target: T1, native EspB of wild-type EPEC; test: western blot of culture supernatants, detection with mAb-EspB-B7
T1 construct: also called EspB in the assembled T3SS; WT EPEC

[2] = target: T2, EspB of Citrobacter rodentium (Citrobacter rodentium DBS100); test: as above
T2 construct: also called C. rodentium EspB

B1: mAb-EspB-B7 (antibody, V domains shown)
VH: EVQLLESGGGLVQPGGSLRLSCAASGFTFSHYAMNWVRQAPGKGLEWVSAINSNGDSTYYPDTVKDRFTISRDNSKNTLYLQMNSLRAEDTAVYYCARDRRAGYFDYWGQGTLVTVSS
VL: DIVLTQPPSASGTPGQRVTISCSGSRDNIGKNYVSWYQQLPGTAPKLLIYRNNQRPSGVPDRFSGSKSGTSASLAISGLRSEDEADYYCSAWDTSLNAYVFGPGTQLTVL
notes: also called mAb-B7; EspB-specific monoclonal antibody
binding result [1]: binds | binding result [2]: binds
